Source: patent publication US20030229922A1, “Materials and methods for the modification of plant cell wall polysaccharides” (GENESIS RESEARCH AND DEVELOPMENT CORPORATION LTD., priority 1998, published 2003)

Substrate: O=P(O)(O)O[C@H]1O[C@H](CO)[C@@H](O)[C@H](O)[C@H]1O
Experiment: purified protein, by the assay type
Settings: other: E. grandis UGP; SEM 0.002

B1: Eucalyptus grandis UGP (UDP-glucose pyrophosphorylase), SEQ ID NO: 79 (DNA; protein SEQ ID NO: 103) (Eucalyptus grandis) (protein)
chain: VLFTHLPPQKPNRISLLLFFIFHITTFLLLLLLLSVLSTFISIAVSLSDPELFFASPPMAAAATLSAPDAAKLSQLKSAVSGLGQISESEKNGFINLVSRYLSGEAQHVDWSKIQTPTDEIVVPYDSLAPTPQDPAATKSLLDKLVVLKLNGGLGTTMGCTGPKSVIEVRNGLTFLDLIVIQIENLNTKYGCNVPLLLMNSFNTHDDTLKIVEKYANSNIDIHTFNQSQYPRLVVEDFMPLPCKGQTGKDGWYPPGHGDVFASLMNSGKLDALLSQGKEYVFAANSDNLGAIVDLKILNHLMTNKNEYCMEVTPKTLADVKGGTLISYEGKVQLLEIAQVPDEHINEFKSIEKFKIFNTNNLWVNLKAIKRLVEAQALKMEIIPNPKEVDGIKVLQLETAAGAAIKFFDNAIGINVPRSRFLPVKATSDLLLVQSDLYTLVDGFVERNKARTNPSNPSIELGPEFKKVGNFLSRFKSIPSIIELDSLKVSGDVWFGTGITLKGKVTIAAKPGVKLEIPDGVVLENKEIHGPEDL
- Km: 126 µM
